B1: ARL6IP1 (parent)
chain: YLDPSVLSGVSCFVMFLCLADYLV

Variants of: B1
Experiment: protein stability index of a GFP-peptide fusion (GPS, HEK-293T) (PSI 1-6); higher = more stable
Conditions: c terminus: a fixed tail appended
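Further: lentivirally expressed fusions sorted by FACS into six bins by GFP to DsRed ratio, PSI derived from sequencing read proportions per bin multiplied by bin number.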

YLDPSVLSFVSCFVMFLCLADYLV [G9F] and YLDPSVLSHVSCFVMFLCLADYLV [G9H] are the same in protein stability index: 3.27 for the first, 3.27 for the second.

First: YLDPSVLSKVSCFVMFLCLADYLV [G9K]
Second: YLDPSVLSLVSCFVMFLCLADYLV [G9L]
The protein stability index of the first is lower: 2.49 for the first, 3.4 for the second.

Compared with YLDPSVLSNVSCFVMFLCLADYLV [G9N], YLDPSVLSPVSCFVMFLCLADYLV [G9P] is lower in protein stability index: 4.26 for the first, 2.66 for the second.

Compared with YLDPSVLSQVSCFVMFLCLADYLV [G9Q], YLDPSVLSRVSCFVMFLCLADYLV [G9R] is lower in protein stability index: 3.72 for the first, 2.5 for the second.

First: YLDPSVLSSVSCFVMFLCLADYLV [G9S]
Second: YLDPSVLSTVSCFVMFLCLADYLV [G9T]
The protein stability index of the first is lower: 2.12 for the first, 3.03 for the second.

First: YLDPSVLSVVSCFVMFLCLADYLV [G9V]
Second: YLDPSVLSYVSCFVMFLCLADYLV [G9Y]
The protein stability index of the first is higher: 3.3 for the first, 2.81 for the second.

Compared with YLDPSVLSGASCFVMFLCLADYLV [V10A], YLDPSVLSGCSCFVMFLCLADYLV [V10C] is lower in protein stability index: 3.22 for the first, 2.61 for the second.

Going from YLDPSVLSGDSCFVMFLCLADYLV [V10D] to YLDPSVLSGESCFVMFLCLADYLV [V10E], the protein stability index falls from 2.93 to 2.67.

Going from YLDPSVLSGFSCFVMFLCLADYLV [V10F] to YLDPSVLSGHSCFVMFLCLADYLV [V10H], the protein stability index falls from 3.19 to 2.26.

Going from YLDPSVLSGISCFVMFLCLADYLV [V10I] to YLDPSVLSGKSCFVMFLCLADYLV [V10K], the protein stability index falls from 3.18 to 2.46.

First: YLDPSVLSGLSCFVMFLCLADYLV [V10L]
Second: YLDPSVLSGMSCFVMFLCLADYLV [V10M]
The protein stability index of the first is higher: 2.97 for the first, 2.44 for the second.

Compared with YLDPSVLSGNSCFVMFLCLADYLV [V10N], YLDPSVLSGPSCFVMFLCLADYLV [V10P] is lower in protein stability index: 3.52 for the first, 3.06 for the second.

Compared with YLDPSVLSGQSCFVMFLCLADYLV [V10Q], YLDPSVLSGSSCFVMFLCLADYLV [V10S] is higher in protein stability index: 2.89 for the first, 3.4 for the second.

First: YLDPSVLSGTSCFVMFLCLADYLV [V10T]
Second: YLDPSVLSGWSCFVMFLCLADYLV [V10W]
The protein stability index of the first is lower: 1.56 for the first, 2.21 for the second.

First: YLDPSVLSGYSCFVMFLCLADYLV [V10Y]
Second: YLDPSVLSGVCCFVMFLCLADYLV [S11C]
The protein stability index of the first is lower: 2.38 for the first, 3.23 for the second.

Compared with YLDPSVLSGVECFVMFLCLADYLV [S11E], YLDPSVLSGVFCFVMFLCLADYLV [S11F] is lower in protein stability index: 4.25 for the first, 2.24 for the second.

Compared with YLDPSVLSGVGCFVMFLCLADYLV [S11G], YLDPSVLSGVHCFVMFLCLADYLV [S11H] is lower in protein stability index: 3.42 for the first, 2.62 for the second.

Going from YLDPSVLSGVPCFVMFLCLADYLV [S11P] to YLDPSVLSGVVCFVMFLCLADYLV [S11V], the protein stability index rises from 3.52 to 4.17.

Going from YLDPSVLSGVYCFVMFLCLADYLV [S11Y] to YLDPSVLSGVSAFVMFLCLADYLV [C12A], the protein stability index falls from 3.78 to 3.07.

Going from YLDPSVLSGVSDFVMFLCLADYLV [C12D] to YLDPSVLSGVSFFVMFLCLADYLV [C12F], the protein stability index falls from 3.35 to 2.47.

First: YLDPSVLSGVSGFVMFLCLADYLV [C12G]
Second: YLDPSVLSGVSLFVMFLCLADYLV [C12L]
The protein stability index of the first is higher: 3.53 for the first, 2.45 for the second.

Compared with YLDPSVLSGVSMFVMFLCLADYLV [C12M], YLDPSVLSGVSPFVMFLCLADYLV [C12P] is higher in protein stability index: 2.56 for the first, 3.54 for the second.

Compared with YLDPSVLSGVSQFVMFLCLADYLV [C12Q], YLDPSVLSGVSSFVMFLCLADYLV [C12S] is lower in protein stability index: 4.12 for the first, 1.48 for the second.

First: YLDPSVLSGVSTFVMFLCLADYLV [C12T]
Second: YLDPSVLSGVSVFVMFLCLADYLV [C12V]
The protein stability index of the first is lower: 2.24 for the first, 3.66 for the second.

Compared with YLDPSVLSGVSWFVMFLCLADYLV [C12W], YLDPSVLSGVSYFVMFLCLADYLV [C12Y] is higher in protein stability index: 2.26 for the first, 2.47 for the second.

Going from YLDPSVLSGVSCAVMFLCLADYLV [F13A] to YLDPSVLSGVSCCVMFLCLADYLV [F13C], the protein stability index falls from 3.86 to 2.92.

Going from YLDPSVLSGVSCDVMFLCLADYLV [F13D] to YLDPSVLSGVSCIVMFLCLADYLV [F13I], the protein stability index rises from 2.64 to 2.81.

First: YLDPSVLSGVSCKVMFLCLADYLV [F13K]
Second: YLDPSVLSGVSCNVMFLCLADYLV [F13N]
The protein stability index of the first is lower: 2.38 for the first, 2.42 for the second.

First: YLDPSVLSGVSCQVMFLCLADYLV [F13Q]
Second: YLDPSVLSGVSCTVMFLCLADYLV [F13T]
The protein stability index of the first is lower: 3.58 for the first, 4.33 for the second.

Going from YLDPSVLSGVSCWVMFLCLADYLV [F13W] to YLDPSVLSGVSCYVMFLCLADYLV [F13Y], the protein stability index falls from 3.83 to 3.73.

First: YLDPSVLSGVSCFAMFLCLADYLV [V14A]
Second: YLDPSVLSGVSCFEMFLCLADYLV [V14E]
The protein stability index of the first is higher: 2.62 for the first, 2.54 for the second.

Going from YLDPSVLSGVSCFFMFLCLADYLV [V14F] to YLDPSVLSGVSCFGMFLCLADYLV [V14G], the protein stability index rises from 2.09 to 2.85.

Going from YLDPSVLSGVSCFHMFLCLADYLV [V14H] to YLDPSVLSGVSCFKMFLCLADYLV [V14K], the protein stability index falls from 2.06 to 1.98.

Going from YLDPSVLSGVSCFLMFLCLADYLV [V14L] to YLDPSVLSGVSCFMMFLCLADYLV [V14M], the protein stability index rises from 2.1 to 3.79.

Compared with YLDPSVLSGVSCFPMFLCLADYLV [V14P], YLDPSVLSGVSCFRMFLCLADYLV [V14R] is lower in protein stability index: 3.67 for the first, 1.65 for the second.

Compared with YLDPSVLSGVSCFSMFLCLADYLV [V14S], YLDPSVLSGVSCFTMFLCLADYLV [V14T] is lower in protein stability index: 2.83 for the first, 2.04 for the second.

First: YLDPSVLSGVSCFWMFLCLADYLV [V14W]
Second: YLDPSVLSGVSCFVCFLCLADYLV [M15C]
The protein stability index of the first is lower: 2.15 for the first, 3.3 for the second.

Going from YLDPSVLSGVSCFVDFLCLADYLV [M15D] to YLDPSVLSGVSCFVFFLCLADYLV [M15F], the protein stability index falls from 2.69 to 2.3.

First: YLDPSVLSGVSCFVGFLCLADYLV [M15G]
Second: YLDPSVLSGVSCFVHFLCLADYLV [M15H]
The protein stability index of the first is higher: 4.04 for the first, 3.49 for the second.

First: YLDPSVLSGVSCFVIFLCLADYLV [M15I]
Second: YLDPSVLSGVSCFVKFLCLADYLV [M15K]
The protein stability index of the first is higher: 4.76 for the first, 3.66 for the second.

Compared with YLDPSVLSGVSCFVLFLCLADYLV [M15L], YLDPSVLSGVSCFVNFLCLADYLV [M15N] is higher in protein stability index: 2.76 for the first, 2.88 for the second.

First: YLDPSVLSGVSCFVRFLCLADYLV [M15R]
Second: YLDPSVLSGVSCFVSFLCLADYLV [M15S]
The protein stability index of the first is lower: 2.59 for the first, 2.79 for the second.

Compared with YLDPSVLSGVSCFVTFLCLADYLV [M15T], YLDPSVLSGVSCFVVFLCLADYLV [M15V] is lower in protein stability index: 3.04 for the first, 2.38 for the second.

Going from YLDPSVLSGVSCFVWFLCLADYLV [M15W] to YLDPSVLSGVSCFVMALCLADYLV [F16A], the protein stability index falls from 2.93 to 1.99.

Going from YLDPSVLSGVSCFVMGLCLADYLV [F16G] to YLDPSVLSGVSCFVMKLCLADYLV [F16K], the protein stability index falls from 2.14 to 1.74.

Compared with YLDPSVLSGVSCFVMLLCLADYLV [F16L], YLDPSVLSGVSCFVMNLCLADYLV [F16N] is higher in protein stability index: 2.62 for the first, 2.88 for the second.

Going from YLDPSVLSGVSCFVMPLCLADYLV [F16P] to YLDPSVLSGVSCFVMRLCLADYLV [F16R], the protein stability index rises from 2.64 to 3.63.

Reference: the supplement of paper PMC10567573
